# Source: US20250340655A1, “EPHA2-TARGETING ANTIBODIES AND THEIR APPLICATIONS IN CANCER TREATMENT” (TAIPEI MEDICAL UNIVERSITY, priority 2022, published 2025)
# B1: Humanized scFv hSD5 (scFv)
# scFv: LTQPPSVSVSPGQTVRITCSGSSGSYGWYQQKSPGQAPVTLIYDNDKRPSGIPERFSGSSSGSTSTLTISGVQAEDEADYYCGSADSSTYVGMFGGGTKLTVLGQSSRSSQVQLVESGGGLVQPGGSLRLSCAASGFTFSDYGMGWVRQAPGKGLEWVAGISAAGSFTPYGAAVKGRFTISRDNSKNTVYLQMNSLRAEDTAVYYCARIPSGYRAGEIYTWGQGTLVTVSS
# notes: also called hSD5 scFv; Humanized scFv hSDS
# Columns and labels:
# [1] = target: T1, EphA3 overexpressed on 293T cells (UniProt P29320 21-983, limits assumed); experiment: flow cytometry on 293T cells overexpressing EphA1-A8
# T1 construct: whole, on cells
# T1 sequence (looked up): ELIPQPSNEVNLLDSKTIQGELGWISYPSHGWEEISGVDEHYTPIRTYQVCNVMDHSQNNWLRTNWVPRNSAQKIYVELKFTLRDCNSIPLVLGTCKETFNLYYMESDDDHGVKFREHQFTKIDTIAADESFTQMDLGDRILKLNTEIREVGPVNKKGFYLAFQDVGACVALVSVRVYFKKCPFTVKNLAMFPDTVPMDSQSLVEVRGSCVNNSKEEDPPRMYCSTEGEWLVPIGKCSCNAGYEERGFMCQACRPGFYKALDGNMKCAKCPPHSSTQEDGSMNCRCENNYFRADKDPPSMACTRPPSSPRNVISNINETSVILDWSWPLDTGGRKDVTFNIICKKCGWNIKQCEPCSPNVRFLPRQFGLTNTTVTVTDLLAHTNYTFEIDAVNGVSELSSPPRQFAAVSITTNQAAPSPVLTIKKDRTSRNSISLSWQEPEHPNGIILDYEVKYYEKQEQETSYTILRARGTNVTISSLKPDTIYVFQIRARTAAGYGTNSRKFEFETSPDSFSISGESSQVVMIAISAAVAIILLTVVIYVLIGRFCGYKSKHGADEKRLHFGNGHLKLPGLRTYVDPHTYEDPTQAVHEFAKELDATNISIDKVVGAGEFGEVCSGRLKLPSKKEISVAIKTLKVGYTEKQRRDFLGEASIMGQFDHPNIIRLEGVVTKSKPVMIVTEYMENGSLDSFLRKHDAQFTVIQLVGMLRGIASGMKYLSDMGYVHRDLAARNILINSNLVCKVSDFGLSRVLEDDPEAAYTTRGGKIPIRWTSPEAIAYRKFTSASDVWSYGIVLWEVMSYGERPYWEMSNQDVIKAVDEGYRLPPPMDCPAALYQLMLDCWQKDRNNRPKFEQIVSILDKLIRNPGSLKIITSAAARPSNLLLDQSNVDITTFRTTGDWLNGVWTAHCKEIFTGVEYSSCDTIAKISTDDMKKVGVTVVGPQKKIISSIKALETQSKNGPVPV
# Procedure: (§1) To detect the binding specificity of scFv, 293T cells were transformed with EphA1-A8 plasmids individually for overexpression of different EphA molecules. The cell line was freshly prepared and washed with FACS buffer (2% FBS in PBS). The cells were seeded at 1×10⁵ cells/well into a 96-well Ubottom plate and incubated with scFv for 1 h at 4° C. After the plate was washed with FACS buffer, the anti-hemagglutinin (HA) antibody was added for scFv binding detection (scFv was fused with a HA tag) and subsequently developed using an FITC-conjugated secondary antibody. Finally, the cell binding signal was analyzed using a FACS can flow cytometer.
# [2] = target: T2, EphA6 overexpressed on 293T cells (UniProt Q9UF33 23-1036, limits assumed); experiment: as above
# T2 construct: whole, on cells
# T2 sequence (looked up): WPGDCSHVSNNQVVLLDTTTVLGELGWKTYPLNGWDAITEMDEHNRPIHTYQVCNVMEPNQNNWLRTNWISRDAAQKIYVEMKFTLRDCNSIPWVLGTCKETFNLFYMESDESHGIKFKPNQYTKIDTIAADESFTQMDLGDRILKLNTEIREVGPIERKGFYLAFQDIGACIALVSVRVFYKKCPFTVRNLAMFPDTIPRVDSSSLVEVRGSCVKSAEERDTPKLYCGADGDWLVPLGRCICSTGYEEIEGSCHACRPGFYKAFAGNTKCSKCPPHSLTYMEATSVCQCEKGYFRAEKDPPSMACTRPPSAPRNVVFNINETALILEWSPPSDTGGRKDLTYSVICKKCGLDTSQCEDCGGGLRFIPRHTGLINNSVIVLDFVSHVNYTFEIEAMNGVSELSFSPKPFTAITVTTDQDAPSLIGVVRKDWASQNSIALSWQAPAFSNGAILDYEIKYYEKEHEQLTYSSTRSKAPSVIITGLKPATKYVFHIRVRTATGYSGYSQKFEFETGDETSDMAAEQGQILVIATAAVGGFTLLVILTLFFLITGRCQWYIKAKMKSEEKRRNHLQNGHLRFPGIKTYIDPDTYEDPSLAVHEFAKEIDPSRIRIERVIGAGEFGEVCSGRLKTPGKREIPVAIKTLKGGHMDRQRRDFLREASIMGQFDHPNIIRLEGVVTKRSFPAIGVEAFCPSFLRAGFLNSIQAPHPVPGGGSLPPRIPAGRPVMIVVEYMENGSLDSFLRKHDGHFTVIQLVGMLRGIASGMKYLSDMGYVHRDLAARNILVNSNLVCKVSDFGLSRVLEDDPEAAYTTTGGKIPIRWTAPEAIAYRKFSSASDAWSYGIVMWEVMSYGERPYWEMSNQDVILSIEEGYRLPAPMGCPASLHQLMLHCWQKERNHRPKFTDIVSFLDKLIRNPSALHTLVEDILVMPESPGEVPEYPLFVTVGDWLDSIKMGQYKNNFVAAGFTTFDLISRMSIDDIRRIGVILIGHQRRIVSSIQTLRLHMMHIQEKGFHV
# Procedure: as §1
binder,measurement,setting,value
B1,binding result,[1],no binding
same,binding result,[2],no binding
